Article PMC5426849 (Molecular Biology of the Cell, 2017)
Non-standard residues stand in square brackets, D forms with d. No end group written: not given here. Flu = 5-carboxyfluorescein, coupled after removal of the final Fmoc group; pY = N[C@@H](Cc1ccc(OP(=O)(O)O)cc1)C(=O)O

B2: Arg SH2 domain, monomeric, cleaved from GST (domain or fragment)
chain: WYHGPVSRSAAEYLLSSLINGSFLVRESESSPGQLSISLRYEGRVYHYRINTTADGKVYVTAESRFSTLAELVHHHSTVADGLVTTLHYPA
B3: fluoresceinated cortactin phospho-Y421 peptide (peptide)
peptide: Flu-SSPI[pY]EDAA

How the values were obtained:
[1] = target: T1, purified recombinant full-length Vav2 (human, UniProt P52735 1-878); experiment: pull-down
T1 sequence: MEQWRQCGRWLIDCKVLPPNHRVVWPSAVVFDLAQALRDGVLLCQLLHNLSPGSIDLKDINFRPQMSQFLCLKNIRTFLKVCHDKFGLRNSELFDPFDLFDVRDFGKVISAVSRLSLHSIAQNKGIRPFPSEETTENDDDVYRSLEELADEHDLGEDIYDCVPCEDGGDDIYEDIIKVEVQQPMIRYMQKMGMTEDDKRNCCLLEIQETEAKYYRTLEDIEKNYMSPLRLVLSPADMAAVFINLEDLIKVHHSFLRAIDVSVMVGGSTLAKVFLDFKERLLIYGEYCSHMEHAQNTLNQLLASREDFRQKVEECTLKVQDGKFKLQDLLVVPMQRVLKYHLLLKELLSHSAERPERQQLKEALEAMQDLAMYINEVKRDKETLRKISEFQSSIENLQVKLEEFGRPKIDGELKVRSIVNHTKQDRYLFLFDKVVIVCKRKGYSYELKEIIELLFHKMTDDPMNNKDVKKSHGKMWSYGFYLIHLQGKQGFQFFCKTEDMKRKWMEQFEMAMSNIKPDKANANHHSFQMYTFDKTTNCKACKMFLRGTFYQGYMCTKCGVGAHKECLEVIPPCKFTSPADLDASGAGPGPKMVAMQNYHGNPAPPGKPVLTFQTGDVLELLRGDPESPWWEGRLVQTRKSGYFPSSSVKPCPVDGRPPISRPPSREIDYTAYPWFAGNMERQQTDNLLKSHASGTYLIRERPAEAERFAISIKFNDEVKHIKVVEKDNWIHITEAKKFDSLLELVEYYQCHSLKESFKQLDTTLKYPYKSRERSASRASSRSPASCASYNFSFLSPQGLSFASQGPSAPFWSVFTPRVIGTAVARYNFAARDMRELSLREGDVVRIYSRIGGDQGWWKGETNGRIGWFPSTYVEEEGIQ

[2] = target: B3; experiment: fluorescence polarisation
[3] = target: Src SH2 domain, monomeric, cleaved from GST (human, UniProt P12931 151-248); experiment: fluorescence polarisation
[4] = target: Nck1 SH2 domain, monomeric, cleaved from GST (human, UniProt P16333 282-376); experiment: fluorescence polarisation
[5] = target: Brk SH2 domain, monomeric, cleaved from GST (human, UniProt Q13882 78-170); experiment: fluorescence polarisation
[6] = target: Fyn SH2 domain, monomeric, cleaved from GST (human, UniProt P06241 149-246); experiment: fluorescence polarisation
[7] = target: T2, Nap4/SOCS7 SH2 domain, monomeric, cleaved from GST (human, UniProt O14512 400-509); experiment: fluorescence polarisation
T2 sequence: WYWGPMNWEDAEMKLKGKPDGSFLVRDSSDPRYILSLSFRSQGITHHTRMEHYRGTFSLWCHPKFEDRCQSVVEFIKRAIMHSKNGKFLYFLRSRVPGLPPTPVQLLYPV

[8] = target: T3, Vav2 SH2 domain, monomeric, cleaved from GST (human, UniProt P52735 673-767); experiment: fluorescence polarisation
T3 sequence: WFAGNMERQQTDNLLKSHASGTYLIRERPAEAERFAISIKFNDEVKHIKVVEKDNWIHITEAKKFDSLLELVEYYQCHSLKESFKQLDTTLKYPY

[9] = target: B2; experiment: fluorescence polarisation

B1: phosphorylated cortactin (natural protein)
chain: not shown
modifications: phosphotyrosine (confirmed by anti-phosphotyrosine Western blot; sites of this preparation not stated)
1500 ± 300 nM: Kd [1]

B2
2.5 fold: fold greater affinity than for the phospho-Y466 peptide [2]

B3
binds: binding result [3] | binding result [4] | binding result [5] | binding result [6] | binding result [7]

Flu-EDDT[pY]DGYE [fluoresceinated cortactin phospho-Y482 peptide]
> 5 µM: Kd [3] | Kd [4] | Kd [8] | Kd [9] | Kd [5] | Kd [6] | Kd [7]
